{
  "source": "paper PMC4837482",
  "about": "“The complex binding mode of the peptide hormone H2 relaxin to its receptor RXFP1” (Nature Communications, 2016)",
  "assay_in_all_cases": "cAMP activity assay (pCRE β-galactosidase reporter), transfected HEK293T cells",
  "type_in_all_cases": "cell-based",
  "key": {"[1]": {"biological_target": "T1, RXFP1 G41D42-AA (Homo sapiens, UniProt Q9HBX9, D64A/G63A)", "T1 construct": "transiently transfected human embryonic kidney (HEK) 293T cells expressing full-length RXFP1 and mutants; expressed in transfected cells; host or cells: HEK293T", "T1 sequence (Q9HBX9 23-757 G63A/D64A limits assumed)": "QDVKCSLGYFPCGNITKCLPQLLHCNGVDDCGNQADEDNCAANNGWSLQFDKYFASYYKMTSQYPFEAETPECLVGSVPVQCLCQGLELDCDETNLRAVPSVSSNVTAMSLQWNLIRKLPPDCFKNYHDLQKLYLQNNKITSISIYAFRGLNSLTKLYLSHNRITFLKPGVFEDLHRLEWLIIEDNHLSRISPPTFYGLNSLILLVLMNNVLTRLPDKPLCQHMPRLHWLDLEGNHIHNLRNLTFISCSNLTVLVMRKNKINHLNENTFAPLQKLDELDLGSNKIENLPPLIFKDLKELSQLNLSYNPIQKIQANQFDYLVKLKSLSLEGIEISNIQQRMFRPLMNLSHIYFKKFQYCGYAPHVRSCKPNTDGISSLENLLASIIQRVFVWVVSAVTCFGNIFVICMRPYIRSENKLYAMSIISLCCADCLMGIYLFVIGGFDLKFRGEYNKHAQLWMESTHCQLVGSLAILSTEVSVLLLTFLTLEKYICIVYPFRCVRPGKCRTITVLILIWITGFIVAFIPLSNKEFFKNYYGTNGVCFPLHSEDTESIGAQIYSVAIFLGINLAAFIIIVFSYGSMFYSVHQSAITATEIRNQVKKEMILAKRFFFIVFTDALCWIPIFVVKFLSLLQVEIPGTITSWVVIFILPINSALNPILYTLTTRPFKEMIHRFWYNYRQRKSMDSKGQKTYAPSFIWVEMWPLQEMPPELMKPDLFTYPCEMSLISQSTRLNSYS", "summary_of_the_method": "(§1)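 Receptor signalling is measured as CRE-driven β-galactosidase activity after H2 relaxin exposure, using a colorimetric substrate read at 570 nm. Values are normalised to 5 μM Forskolin, pooled from at least three independent triplicate experiments.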"}, "[2]": {"biological_target": "T2, RXFP1 W46A (Homo sapiens, UniProt Q9HBX9, W68A)", "T2 construct": "transiently transfected human embryonic kidney (HEK) 293T cells expressing full-length RXFP1 and mutants; expressed in transfected cells; host or cells: HEK293T", "T2 sequence (Q9HBX9 23-757 W68A limits assumed)": "T1 sequence (Q9HBX9 23-757 G63A/D64A limits assumed) with A41G, A42D, W46A", "settings": "construct W46A, ±s.e.m.", "summary_of_the_method": "as §1"}, "[3]": {"biological_target": "T3, RXFP1 Y58A (Homo sapiens, UniProt Q9HBX9, Y80A)", "T3 construct": "cells expressing full-length RXFP1 and mutants; expressed in transfected cells; host or cells: HEK293T", "T3 sequence (Q9HBX9 23-757 Y80A limits assumed)": "T1 sequence (Q9HBX9 23-757 G63A/D64A limits assumed) with A41G, A42D, Y58A", "settings": "construct Y58A, ±s.e.m.", "summary_of_the_method": "as §1"}, "[4]": {"settings": "percentage of maximum response to 5 μM Forskolin"}},
  "note": "Numbering of substitutions follows the chain as printed.",
  "data": [
    {"substance": "H2 relaxin: two-chain 6-kDa peptide hormone structurally related to insulin; recombinant human gene-2 H2 relaxin provided by Corthera", "values": [
      {"measurement": "loss of H2 relaxin-stimulated cAMP activity", "setting": "[1]; G41A/D42A RXFP1 versus wild-type RXFP1", "value": "5,000 fold"},
      {"measurement": "H2 relaxin Emax", "setting": "[1]; construct G41D42-AA, percentage of maximum response to 5 μM Forskolin, ±s.e.m.", "value": "106.8±46.67 (3) %"},
      {"measurement": "H2 relaxin pEC50", "setting": "[2]; cAMP reporter", "value": "7.02±0.18 (3)"},
      {"measurement": "H2 relaxin Emax", "setting": "[2]; [4]", "value": "109.6±13.69 (3) %"},
      {"measurement": "H2 relaxin pEC50", "setting": "[3]; cAMP reporter", "value": "10.88±0.09 (3)"},
      {"measurement": "H2 relaxin Emax", "setting": "[3]; [4]", "value": "89.14±7.93 (3) %"}
    ]}
  ]
}
